Measurements reported in US20220347267A1, “METHODS TO IMPROVE PATIENT RESPONSE TO IMMUNE CHECKPOINT INHIBITORS AND FUNCTIONAL TESTS TO PREDICT RESPONSE” (Biomarker Strategies, LLC, priority 2019, published 2022).

Test system: various NSCLC, HNSCC, breast cancer, melanoma, colorectal cancer, and pancreatic cancer cell lines
Assay: PD-L1 western blot after modulators, summary over all samples
Format: cell-based, human
Settings: depending on the sample, summary of Table 3
Description: Cell lines were acquired from ATCC, Sigma, or DSMZ. Human non-small cell lung carcinoma (NSCLC) cell lines H292 (ATCC no. CRL-1848.), H1299 (ATCC no. CRL-5803), H520 (ATCC no. CRL-5811), CALU6 (ATCC no. HTB-56), H1975 (ATCC no. CRL-5908), H460 (ATCC no. HTB-177), H2126 (ATCC no. CCL-256), H1650 (ATCC no. CRL-5883), and H2087 (ATCC no. CRL-5922) were used for this experiment along with head and neck squamous cell carcinoma (HNSCC) cell lines BHY (DSMZ ACC 404), CAL27 (ATCC no. CRL-2095), KYSE410 (Sigma), and A253 (ATCC no. HTB-41), melanoma cell lines A375 (ATCC no. CRL-1619), COL0853 (Sigma), and MM127 (Sigma) pancreatic cancer cell lines BXPC3 (ATCC no. CRL-1687), colorectal cancer cell lines […], HCT116 (ATCC no. CCL-247EMT), and breast cancer cell lines BT549 (ATCC no. HTB-122), BT20 (ATCC no. HTB-19), and T47D (ATCC no. HTB-133). Cells were maintained in manufacturer-recommended conditions at 37° C. inside humidified 5% CO2 incubators. Sub-cultivation and harvesting for all cell lines were performed using Accutase (GIBCO Life Technologies; cat. no. A1110501) at 37° C. for 10 minutes. Cell viability was measured using trypan blue exclusion staining in conjunction with the Countess II Automated Cell Counter (Thermo Fischer Scientific; cat. no. AMQAX1000). Measurements were made in duplicate and the average number of viable cells was recorded prior to experiments.
T7039), and IL-10 (50 ng/ml; Sigma Aldrich cat. no. SRP3071) were administered to cell lines for various times including 30 minutes, 3 hour, and 24 hour time intervals prior to cell lysis and protein extraction.
To determine the effects of the aforementioned molecules on the modulation of PD-L1, we selected various NSCLC, HNSCC, breast cancer, melanoma, colorectal cancer, and pancreatic cancer cell lines as examples. Other diseases or cell lines could be used readily as could more complex samples such as cells isolated from xenografts and clinical samples. Cells were plated, for three different time points (30 minutes, 3 hours, and 24 hours), inside 6-well petri dishes with 2 mL of appropriate medium. Plates were incubated for 24 hours in 5% CO2 incubators at 37° C. After 24 hours, each 6-well plate was washed with PBS (Gibco Life Technologies, cat. no. 10010023) followed by fresh media being added along with each cell line's vehicle control or appropriate modulator for each specific time point, and were placed in CO2 incubators until their modulation time point was reached. Other conditions can be readily used, such as processing on automated systems such as SnapPath. At the end of each time point, while keeping plates on ice, cell lysis was conducted by aspirating culture medium from each plate, washing of each plate three times with 5 ml of cold PBS (Gibco Life Technologies, cat. no. 10010023) and culminated with the addition of cold 1× lysis buffer containing (Cell Signaling, cat. no. 9803 S) protease inhibitor cocktail (Cell Signaling, cat. no. 5871S), phosphatase inhibitor cocktail (Cell Signaling, cat. no. 5870S), and PMSF (Fisher Scientific, cat. no. ICN19538101). Plates were then placed on ice for ten minutes, swirling each plate intermittently. Aliquots of protein lysates were prepared and then stored at −80° C. until protein quantification and Western blot analysis was to be conducted. The protein concentration of each lysate was analyzed by using the Pierce 660 Protein Assay Reagent (Thermo Fisher Scientific, cat. no. 22660) and testing of each sample was conducted in duplicate. Two μg of protein was then loaded per lane into 10% Midi-PROTEAN TGX Precast Gels (Bio Rad, cat. no. 5671034) along with Kaleidoscope Prestained Protein Standard (BioRad, cat. no. 1610375) which ran at 220V for 45 minutes. Proteins were transferred to mini-PVDF membranes (BioRad, cat. no. 1704156) in 3 minutes using the Trans-Blot Turbo Transfer System (BioRad, cat. no. 1704150EDU).

B1: IFNγ: human IFNγ, modulator (10 ng/ml; Sigma Aldrich) (protein, UniProt P01579 24-161, looked up)
Interferon gamma: QDPYVKEAENLKKYFNAGHSDVADNGTLFLGILKNWKEESDRKIMQSQIVSFYFKLFKNFKDDQSIQKSVETIKEDMNVKFFNSNKKKRDDFEKLTNYSVTDLNVQRKAIHELIQVMAELSPAAKTGKRKRSQMLFRG
- regulation of PD-L1 across samples: only led to upregulation
